± gives the uncertainty stated by the source.
assay: amyloid nucleation score (Sup35N fusion, yeast selection) (log enrichment); library NNK3; higher = more nucleation; inactive = no reads after selection
Procedure, shortened: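 The nucleation score, computed with DiMSum, is the log enrichment of output over input reads, centred on the mode score of non-aggregating sequences. Sequences with under 100 input reads were dropped. Reads were generated by Illumina sequencing of plasmid inserts from psi-negative yeast with Sup35N fused to peptides of 20 random codons, induced with 100 μM copper sulfate for 24 hours and grown 7 days at 30°C on medium lacking adenine and uracil.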

Substance	amyloid nucleation score
FDVFISENNDAGSHNVEMYQ	inactive
FECKLNRGWSKQARWLNKLY	0.177 ± 0.38
FELRVV	inactive
FELSNVHGSLNRAKV	-0.526 ± 0.8
FELSYNWYNSNFVRRNVPFP	inactive
FERDVFDQYEVVQWGARGDG	inactive
FETGCW	inactive
FEVWRTGLCDRARGTVNRLK	inactive
FEYLLGKLCRLCSNAGRSLS	inactive
FFEFSTSVVYN	inactive
FFFLLKMRHKPSASANLNSN	inactive
FFFRLDCRLYS	inactive
FFFTATLNQLSYTYIFSKLA	inactive
FFFYFLRFSDFNWFINWLIS	inactive
FFISDVGETC	inactive
FFLAFKEQPRAYLISISTH	inactive
FFLNGVCDCLRIPCTNVYLY	inactive
FFMEIKYGWKV	0.898 ± 0.12
FFMPFRNLIHKLVTTEELYR	inactive
FFNIDVHARVSI	inactive
FFNKGCMFCSREAVIVQIWG	2.62 ± 0.082

Substance	amyloid nucleation score
FFSCGDKLSFF	inactive
FFSIT	inactive
FFSVGIKLDVFVWFWGEGHL	inactive
FFWLMDAPHPRRHVDERQLI	inactive
FFWVMISGVFLRRIHDSRSA	inactive
FFYNYSRSGLCYIIFSESPV	1.33 ± 0.095
FFYRVSVSLSRAKI	inactive
FGCCKRCRHNRVSKEFSWSC	inactive
FGICVDVGRAHIVKRSNRML	inactive
FGLITYFLL	1 ± 0.13
FGLVRTNRDILH	inactive
FGMVFHISIACKWTGFSMR	inactive
FGQDSPSVLTC	-0.381 ± 0.7
FGRGCHRSMTIGDLVFLLIT	inactive
FGRVT	inactive
FGSLPRQIMCMPA	inactive
FGSVERFLLDPLTGHVGRFF	inactive
FGTGDMCKQCRHDVVRHSCL	inactive
FGTMSSGYAGGNKKFHPHRY	inactive
FGWLYNLNVSDIGTGD	inactive
FHNAFAFLSHWGVMVRSFEG	inactive

Substance	amyloid nucleation score
FHVEVVAGCIVGNFGGVCVI	0.5 ± 0.28
FICCMLIMKVNYDTRLISSM	inactive
FICFFGYS	inactive
FIGMDIIKYLS	0.631 ± 0.16
FIITPTYIICQRLFY	inactive
FIMNARGVPLEGWWSDGSDK	inactive
FIRFWASVSTNCRLPFLLNR	inactive
FISPVL	inactive
FISRVMGSSR	inactive
FIVNSLPDLNALAHMSALLY	inactive
FIVSPPSNGANVY	inactive
FIVVVTYARWHSRYVSGWVS	inactive
FIVYMSTHRA	1.67 ± 0.11
FIYSFLSYHIWTFKPPVVVG	inactive
FKDMFPNLSTCLLIVRM	inactive
FKFALPHSNIGFTISSRFGC	0.478 ± 0.16
FKGTTMIGRYINRVVMWAWS	inactive
FKSSVKGEGYGKMGFQLLPF	inactive
FKVNLDVP	-0.263 ± 1.4
FLANPWCIVARLCSNHVIVH	inactive
FLAWYMTFMV	0.036 ± 0.88

Substance	amyloid nucleation score
FLCQFLRFFCIN	1.04 ± 0.13
FLCWIYDECKGVRCVRLGAI	inactive
FLDSSVW	inactive
FLFILPDNGPRWCSYTVGNV	inactive
FLFLLWCNMMPEMYVIAMNI	inactive
FLFTFKIHPLGGMFGVLILS	inactive
FLGGRTLTSLPE	inactive
FLGIDAPDWSMVSKAIGRMG	inactive
FLGVNNNSVVNLYELCD	inactive
FLIISCS	inactive
FLISIWGGIGNDNVSVVGVG	inactive
FLLERLSV	inactive
FLLSCK	inactive
FLLSVMRELSKYYYIIFSTS	inactive
FLLVFC	-0.021 ± 0.3
FLLVYWLVLVFPIVGNLMPE	inactive
FLQECRDCQGTVRNKSSAP	inactive
FLRCTRPPTASENIFRDINY	inactive

Source: the supplement of paper PMC12042874
